Measurements taken from the nanobody polyreactivity screen of Harvey et al. (2022).

Experiment: yeast display, Sf9 membrane polyspecificity reagent, FACS + sequencing; frameworks hold sequencing errors
In short: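 Galactose-induced (36–48 hours) yeast carrying a synthetic nanobody display library were exposed to 10% biotinylated, detergent-solubilized Sf9 membrane reagent at 4 °C for 1 hour. FACS followed streptavidin microbead enrichment, using low and high (top ~1%) gates for expression (anti-HA) and reagent binding (streptavidin). Colony PCR, MiSeq 2 × 250 sequencing and CDR-length filtering followed. Labels for polyreactivity reflect the gate of origin.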

For “QVQLVESGGGLVQAGGSLRLSSAASGRIFNGNAMGWSRQSPGKERELVAAISSGGRTYYADSVKGRFTISRDNAKNTVYLQMNSLKPEDTEVYYCAARVILTTYSRNYYYWGQGTQVTVSS”, which “polyreactivity (PSR sort gate)” value is on record?
Its value is “high polyreactivity”.

For “QVQLVESGGGLVQAGGSLRLSSAASGRIFPGYAMGWYRQAPGKEREFVAAITRSGGRTYYADSVKGRFTISRDNAKNTVYVQMNSLKPEDTAVYYCNRVYEYWSEYDYWGQGTQVTVSS”, which “polyreactivity (PSR sort gate)” value is on record?
The value was “high polyreactivity”.

With “QVQLVESGGGLVQAGGSLRLSSAASGRIFPRYGMGWYRQAPGKERELVAAISIGGSTHYADSVKGRFTISRDNAKNTVYLQMNSLKPEDTAVYYCNKDIYVYWLFRLGMGYWGQGTQVTVSS” as the sequence, how does the “polyreactivity (PSR sort gate)” value read?
Its value is “low polyreactivity”.

For “QVQLVESGGGLVQAGGSLRLSSAASGRIFRPYAMGWYRPAPGKERELVAIRKSTGSTYYADSVKGRFTISRDNAKITVYLQMNSLKPEHTAVYYCAAPRDWDAGDYWGQGTQVTVSS”, which “polyreactivity (PSR sort gate)” value is on record?
The value was “high polyreactivity”.

Which “polyreactivity (PSR sort gate)” value does the source give for “QVQLVESGGGLVQAGGSLRLSSAASGRIFSRYTMGWYRQAPGKERELVAAISWIGTRTYYADSVKGRFTISRDNAKNTVYLQMNSLKPEDTAVYYCNAVFGGYYGYVSNYKFDYWGHGTQVTVSS” here?
The value was “high polyreactivity”.

For “QVQLVESGGGLVQAGGSLRLSSAASGRIFWPNTIGWYRQAPGKERELVAAISWSGGSTYYADSVKGRFTISRDNAKNTVYLQMNSLIPEDTAVYYFNARYPNTRKYDYWGQGTQVTVSS”, which “polyreactivity (PSR sort gate)” value is on record?
The value was “high polyreactivity”.

With “QVQLVESGGGLVQAGGSLRLSSAASGRIFYLYAMGWYRQAPVKERELVAGITSGGRTNYADSVKGRFTISRDNAKNTFFLQMNSLKPEDTAVYYCAAYYWGLYSGYYWRQGTQVTVSS” as the sequence, how does the “polyreactivity (PSR sort gate)” value read?
The value was “high polyreactivity”.

With “QVQLVESGGGLVQAGGSLRLSSAASGRIFYPYTIGWYRQAPGKERELVAAISSTGRTNYADSVKGRFTISRDNAKNTVYLQMNSVKPEDTAVYYCAKGFRKYSLGPPGNDYWGQGTQVTVSS” as the sequence, how does the “polyreactivity (PSR sort gate)” value read?
The value was “high polyreactivity”.

Which “polyreactivity (PSR sort gate)” value does the source give for “QVQLVESGGGLVQAGGSLRLSSAASGRIFYRNAMGWYRQAPGKEREMVAAINWSGGSTYYADSVKGRFTISRDNAKNSVYLQMNSLKPEDTAVYYCAAKPGKTPLTGDRGPYDTGYGYWGQGTQVTVSS” here?
Its value is “low polyreactivity”.

Which “polyreactivity (PSR sort gate)” value does the source give for “QVQLVESGGGLVQAGGSLRLSSAASGRIFYRNAMGWYRQAPGKEREMVAAIRGSGGRTYYADSVKGRFTISRDNAKYTVYLQMISLKPEDTAVYYCAAYGYYVEHPRGLSGPYDDDYWGQGTQVTVSS” here?
The value was “low polyreactivity”.

Which “polyreactivity (PSR sort gate)” value does the source give for “QVQLVESGGGLVQAGGSLRLSSAASGRIFYSNAMGWYRQAPGKERELVAAITRSGGGTYYADSVKGRFTISSDNAKNTVYLLMNSLKPEDTAVYYCAAIYNWWGLGSLYYGSNYWGQGTQVTVSS” here?
Its value is “high polyreactivity”.

Which “polyreactivity (PSR sort gate)” value does the source give for “QVQLVESGGGLVQAGGSLRLSSAASGRILPVNTMGWYRQAPGKERELVAVITRSGGRTYYADSVKGRFTISRDNAKNTVYLQMNSLKPEDTAVYYCAADVGFRWYRYTAGPLEYDYWGQGTQVTVSS” here?
The value was “high polyreactivity”.

Which “polyreactivity (PSR sort gate)” value does the source give for “QVQLVESGGGLVQAGGSLRLSSAASGRTFAVNAMGSYRQAPGKERELLAAISQRAGRTYYADSVKGRFTISRDNEKNTVYLQMNSLKPEDTAVYYCNVVGFRSRVGSRGYWGLGTQVTVSS” here?
The value was “high polyreactivity”.

With “QVQLVESGGGLVQAGGSLRLSSAASGRTFIVYAMGWYRQQPGKERELVARISSGSRTSYADSVKGRFTISRDNAKNTVYLQMNSLKPEDTAVYYCAKSRVIKYEFDYWGQGTQVTVSS” as the sequence, how does the “polyreactivity (PSR sort gate)” value read?
The value was “low polyreactivity”.

Which “polyreactivity (PSR sort gate)” value does the source give for “QVQLVESGGGLVQAGGSLRLSSAASGRTFPIYAMGWYRQAPGKERELVATITLNDGNTYYADSVKGRFTISRDNAKNTVYLQMNSLKPEDTAVYYCAAKGGWPWHYHYQKNSEYDYWGQGTQVTVSS” here?
The value was “low polyreactivity”.

With “QVQLVESGGGLVQAGGSLRLSSAASGRTFRYYTMGWYRQAPGKEREFVAAISSTGGTYYADSVKGRFTISRDNAKNNVYLQMNSLKPEVTAVYYCAATFIQVVVNVELYDYDYWGQGTQVTVSS” as the sequence, how does the “polyreactivity (PSR sort gate)” value read?
The value was “low polyreactivity”.
